Data on two substances can be found in patent US7138254.

The data set deals with cytochrome C.

trypsin, sequence (P00760 24-246): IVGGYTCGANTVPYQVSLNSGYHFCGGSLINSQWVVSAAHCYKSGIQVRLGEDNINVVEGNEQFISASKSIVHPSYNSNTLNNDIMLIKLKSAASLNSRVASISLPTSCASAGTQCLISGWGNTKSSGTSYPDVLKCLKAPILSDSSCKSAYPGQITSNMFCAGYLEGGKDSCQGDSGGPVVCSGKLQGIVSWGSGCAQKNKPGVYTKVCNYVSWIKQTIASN
biotin conjugated trypsin, sequence (P00760 24-246): as above

Consider trypsin, for which the “peptide maps (capillary electrophoresis of FITC labeled digest), three runs over two weeks” value is given as “the control capillary cassette showed some protein digestion only in the first run, but no protein digestion in the second or the third run”; the “peptide profiles of digested cytochrome C (capillary electrophoresis of FITC labeled digest)” value was “The obtained peptide profiles of digested cytochrome C are consistent and reproducible between each run and comparable to data obtained with full volume reactions”.

biotin conjugated trypsin: the “peptide maps (capillary electrophoresis of FITC labeled digest), three runs over two weeks” value is recorded as “all capillaries of the treated cassettes have the same peptide maps in the three runs”; the “peptide profiles of digested cytochrome C (capillary electrophoresis of FITC labeled digest)” value was “the peptide profiles of digested cytochrome C obtained from this approach and the approach described in Example 26 are consistent and reproducible”.
